± gives the standard deviation of the averaged measurements.
Test system: ATP
Experiment: switch fluorescence ratio, 500 uM ATP over buffer (Cy3 cluster intensity, sum of 5 cycles each) (fold (ratio)); higher = stronger signal-on switching upon ATP binding; sequences stand for … in TCGTCGGCAGCGTCAGATGTGTATAAGAGACAGTTTTTTTTTTTTTTTTTTTTTTTTT…TC
Details: aptamer strand: ATP DNA aptamer (quencher-CACCTGGGGGAGTATTGCGGAGGAAGG + anchor), 100 nM annealed; ATP concentration: 500 uM
Method in brief: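 Between each of five buffer/ATP cycles, the flow-cell was stripped with NaOH and re-annealed. Each cycle imaged Cy3-labelled switching-strand clusters, annealed to 100 nM quencher-labelled ATP aptamer on a modified Illumina MiSeq flow-cell, first in selection buffer and then after 15 min with 500 uM ATP at 22 °C. The fluorescence ratio is summed target-cycle over summed buffer-cycle Cy3 intensity per cluster, averaged per switch-domain sequence, with clusters outside 100-1000 RFU excluded.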
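Note: ATP exposure 15 min at 22 °C before imaging.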

| Sequence | switch fluorescence ratio |
| --- | --- |
| AAATTAAATC | 0.993 ± 0.043 |
| AAATTACTAG | 1.01 ± 0.048 |
| AAATTAGATG | 1.009 ± 0.0051 |
| AAATTAGGGA | 0.978 ± 0.046 |
| AAATTCGGGA | 0.9799 ± 0.0032 |
| AAATTCTGCG | 0.941 ± 0.0098 |
| AAATTGCTAG | 0.997 ± 0.032 |
| AAATTGGCAT | 0.993 ± 0.028 |
| AAATTGGGAT | 0.9636 ± 0.0093 |
| AAATTGGGCG | 0.983 ± 0.021 |
| AAATTGGGTA | 0.991 ± 0.024 |
| AAATTTAAAT | 1.02 ± 0.024 |
| AAATTTACAG | 1.03 ± 0.04 |
| AAATTTCATT | 1 ± 0.041 |
| AAATTTGGGC | 0.961 ± 0.02 |
| AAATTTTCC | 1.34 ± 0.065 |
| AACAACTTTT | 1.04 ± 0.042 |
| AACACAGGTA | 1.06 ± 0.013 |
| AACAGCTGTA | 1.05 ± 0.062 |
| AACAGGACAT | 1.06 ± 0.017 |
| AACAGGACGC | 1.08 ± 0.1 |
| AACAGGTGGG | 1.24 ± 0.023 |
| AACAGTCGCG | 0.968 ± 0.024 |
| AACAGTTGTG | 0.976 ± 0.017 |
| AACAGTTTTA | 0.972 ± 0.011 |

| Sequence | switch fluorescence ratio |
| --- | --- |
| AACATATGGG | 1 ± 0.012 |
| AACATGGAGG | 0.968 ± 0.031 |
| AACATTAGGC | 1.05 ± 0.039 |
| AACATTTTTC | 1.01 ± 0.021 |
| AACCAAAAAA | 1.01 ± 0.019 |
| AACCAAAGGT | 1.014 ± 0.0017 |
| AACCAATCGT | 1.03 ± 0.041 |
| AACCAGAGTA | 1.011 ± 0.0039 |
| AACCAGCTGG | 1.04 ± 0.03 |
| AACCAGTTAG | 1.01 ± 0.021 |
| AACCCACATC | 1.303 ± 0.002 |
| AACCCGAGCC | 1.196 ± 0.011 |
| AACCGGGGTT | 0.996 ± 0.046 |
| AACCGTTGAC | 1.21 ± 0.02 |
| AACCTCACTC | 1.49 ± 0.13 |
| AACCTCTCGG | 1.033 ± 0.0039 |
| AACCTGCTCG | 1.1 ± 0.02 |
| AACCTGGGTA | 1.008 ± 0.0035 |
| AACCTGTAGG | 0.987 ± 0.021 |
| AACCTTCGTG | 1.62 ± 0.047 |
| AACGAAACTT | 1.123 ± 0.0042 |
| AACGAATTCA | 1.05 ± 0.017 |
| AACGACGATC | 1.11 ± 0.046 |
| AACGACTGGG | 0.997 ± 0.051 |
| AACGAGTCGT | 0.989 ± 0.029 |

| Sequence | switch fluorescence ratio |
| --- | --- |
| AACGCAGCCT | 1.11 ± 0.0027 |
| AACGCAGGAG | 1.48 ± 0.025 |
| AACGCCAGGC | 1.01 ± 0.028 |
| AACGCCGCAT | 1.858 ± 0.0036 |
| AACGCTGGGT | 1.0379 ± 0.00084 |
| AACGGAGCTT | 1.47 ± 0.25 |
| AACGGATTCT | 1.04 ± 0.016 |
| AACGGCGCCA | 0.983 ± 0.025 |
| AACGGGAGAT | 0.991 ± 0.048 |
| AACGGGAGGG | 1.04 ± 0.011 |
| AACGGGCTAG | 0.999 ± 0.014 |
| AACGGGGAGC | 0.983 ± 0.047 |
| AACGGGGGCC | 1.03 ± 0.066 |
| AACGGGGGGA | 0.979 ± 0.033 |
| AACGGGGTAA | 0.948 ± 0.037 |
| AACGGGTGCG | 0.995 ± 0.02 |
| AACGGTACCG | 0.981 ± 0.014 |
| AACGGTGACG | 1.03 ± 0.072 |
| AACGGTTTTT | 0.972 ± 0.036 |
| AACGTAAATT | 1.33 ± 0.31 |
| AACGTAGTGT | 1.01 ± 0.047 |
| AACGTGACAG | 1.06 ± 0.046 |
| AACGTGGGTA | 1.01 ± 0.026 |
| AACGTGGTTT | 1.01 ± 0.025 |
| AACGTGTGTG | 0.95018 ± 1.6e-05 |

| Sequence | switch fluorescence ratio |
| --- | --- |
| AACGTTAGCG | 1.002 ± 0.0045 |
| AACGTTGCCC | 1.01 ± 0.025 |
| AACGTTTTTT | 0.991 ± 0.027 |
| AACTAGGTGT | 1.15 ± 0.22 |
| AACTATATCT | 1.05 ± 0.021 |
| AACTATCTTG | 1 ± 0.0027 |
| AACTATGGTC | 1.01 ± 0.036 |
| AACTCAAGGG | 1.0096 ± 0.00058 |
| AACTCGGTCT | 1.03 ± 0.095 |
| AACTCGTAGG | 0.995 ± 0.018 |
| AACTCGTTCT | 1.01 ± 0.011 |
| AACTCTGAGA | 1.03 ± 0.013 |
| AACTGAAGTG | 0.984 ± 0.023 |
| AACTGCGCTG | 1.01 ± 0.035 |
| AACTGGACTC | 1.14 ± 0.013 |
| AACTGGAGGG | 0.969 ± 0.042 |
| AACTGGGACT | 1.02 ± 0.041 |
| AACTGGGGGC | 1 ± 0.031 |
| AACTGGGGGT | 1.02 ± 0.017 |
| AACTGGTCGC | 1.14 ± 0.07 |
| AACTGTTGGG | 0.9928 ± 0.002 |
| AACTTAACGA | 1.0744 ± 0.00011 |
| AACTTATTTG | 1 ± 0.028 |
| AACTTCTATT | 1.016 ± 0.00089 |
| AACTTGGTGT | 0.983 ± 0.016 |

| Sequence | switch fluorescence ratio |
| --- | --- |
| AACTTGGTTT | 0.961 ± 0.056 |
| AACTTTAGGT | 0.987 ± 0.023 |
| AACTTTCCGA | 2.36 ± 0.39 |
| AACTTTCCTC | 2.49 ± 0.076 |
| AACTTTGCAG | 1.016 ± 0.0052 |
| AACTTTTTAC | 1.05 ± 0.028 |
| AAGAAAACTT | 1.042 ± 0.0089 |
| AAGAAAGGAA | 0.951 ± 0.029 |
| AAGAAAGGCA | 0.998 ± 0.033 |
| AAGAAAGGGA | 1.03 ± 0.038 |
| AAGAACCCAG | 1.05 ± 0.025 |
| AAGAACTAAA | 1.05 ± 0.081 |
| AAGAACTAGG | 1.03 ± 0.041 |
| AAGAAGCTGA | 0.972 ± 0.019 |
| AAGAAGGACG | 1 ± 0.033 |
| AAGAAGGAGC | 0.974 ± 0.039 |
| AAGAAGTTTG | 0.9879 ± 0.0049 |
| AAGAATCAGA | 0.98 ± 0.015 |
| AAGAATCTCT | 0.968 ± 0.045 |
| AAGACCTTAT | 1.05 ± 0.011 |
| AAGACGTCAC | 1.91 ± 0.14 |
| AAGACGTTTT | 1.014 ± 0.0011 |
| AAGACTCTGG | 0.973 ± 0.044 |
| AAGAGACGGG | 1.009 ± 0.0018 |
| AAGAGCTTTG | 0.99 ± 0.013 |

| Sequence | switch fluorescence ratio |
| --- | --- |
| AAGAGGATAG | 0.983 ± 0.043 |
| AAGAGGCTAA | 1 ± 0.036 |
| AAGAGGGGAC | 0.996 ± 0.056 |
| AAGAGTCGTA | 0.969 ± 0.027 |
| AAGAGTGTCG | 0.921 ± 0.056 |
| AAGAGTTAGG | 0.966 ± 0.031 |
| AAGATACCTG | 1.08 ± 0.043 |
| AAGATACGAA | 1.04 ± 0.019 |
| AAGATAGTAC | 1.04 ± 0.024 |
| AAGATAGTGT | 0.9936 ± 0.0057 |
| AAGATATCGA | 1.02 ± 0.014 |
| AAGATGACGC | 1.12 ± 0.13 |
| AAGATGTAGC | 1.006 ± 0.0053 |
| AAGATGTAGG | 1.025 ± 0.0086 |
| AAGATTATTT | 0.989 ± 0.074 |
| AAGATTCATT | 0.99763 ± 0.00055 |
| AAGATTGGGG | 0.977 ± 0.019 |
| AAGATTTTAC | 1.01 ± 0.019 |
| AAGATTTTTT | 1.01 ± 0.016 |
| AAGCAATGGG | 1.45 ± 0.037 |
| AAGCACCCGT | 1.12 ± 0.058 |
| AAGCAGGTTA | 1.01 ± 0.0062 |
| AAGCATAGGA | 1.02 ± 0.02 |
| AAGCATCATA | 0.988 ± 0.021 |
| AAGCATGTTG | 0.966 ± 0.021 |

| Sequence | switch fluorescence ratio |
| --- | --- |
| AAGCATTAGT | 1.05 ± 0.04 |
| AAGCATTGTT | 0.999 ± 0.035 |
| AAGCCAGTGG | 1.014 ± 0.0035 |
| AAGCCCGGGA | 1.45 ± 0.67 |
| AAGCCGGGCT | 1.02 ± 0.029 |
| AAGCCGGGTC | 0.991 ± 0.0014 |
| AAGCCGTGCG | 1.02 ± 0.014 |
| AAGCCGTGGC | 0.975 ± 0.11 |
| AAGCGGTGGG | 1.05 ± 0.032 |
| AAGCGGTTAA | 1.011 ± 0.0022 |
| AAGCGTTTTG | 0.988 ± 0.0017 |
| AAGCTAATTC | 1.186 ± 0.0069 |
| AAGCTAGTTT | 1 ± 0.013 |
| AAGCTCAATC | 1.05 ± 0.032 |
| AAGCTCTGTG | 0.95 ± 0.027 |
| AAGCTGAGAT | 1.01 ± 0.024 |
| AAGCTGCATG | 1.01 ± 0.018 |
| AAGCTGGCTG | 0.945 ± 0.029 |
| AAGCTGGCTT | 1.024 ± 0.0056 |
| AAGCTGGTAC | 1.99 ± 0.1 |
| AAGCTGGTTT | 0.982 ± 0.032 |
| AAGCTTGTTG | 0.992 ± 0.038 |
| AAGCTTTTCA | 1.03 ± 0.041 |
| AAGCTTTTGT | 0.9849 ± 0.0084 |
| AAGGAAACAC | 1.96 ± 1.3 |

| Sequence | switch fluorescence ratio |
| --- | --- |
| AAGGAAAGGG | 1.21 ± 0.25 |
| AAGGAAGGGT | 1.02 ± 0.041 |
| AAGGAAGTGC | 1.003 ± 0.0086 |
| AAGGAGTGAC | 1.05 ± 0.06 |
| AAGGATAGGA | 1 ± 0.014 |
| AAGGATGCAT | 1.03 ± 0.038 |
| AAGGCAATTA | 1.15 ± 0.033 |
| AAGGCACGCT | 1 ± 0.065 |
| AAGGCCAATA | 1.05 ± 0.033 |
| AAGGCCGTGA | 1.03 ± 0.085 |
| AAGGCGAAAA | 0.976 ± 0.013 |
| AAGGCGAGAC | 1.06 ± 0.023 |
| AAGGCGCGGG | 0.9891 ± 0.0081 |
| AAGGCGCGGT | 1.03 ± 0.011 |
| AAGGCGGGAG | 0.96 ± 0.032 |
| AAGGCGGGCT | 0.98942 ± 7e-05 |
| AAGGCTATGG | 0.988 ± 0.027 |
| AAGGCTCTTG | 0.986 ± 0.018 |
| AAGGCTGGGG | 0.9781 ± 0.0058 |
| AAGGCTGGGT | 1.02 ± 0.023 |
| AAGGCTTCTT | 1 ± 0.015 |
| AAGGGAAGGC | 1 ± 0.018 |
| AAGGGAATAG | 1.02 ± 0.014 |
| AAGGGACGGG | 1.01 ± 0.027 |
| AAGGGAGGCT | 1.01 ± 0.066 |
